B1: FCHSD1 (parent)
chain: LEAAEVILEHAHRGEQTTSQVSWE

Variants of: B1
Experiment: protein stability index of a GFP-peptide fusion (GPS, HEK-293T) (PSI 1-6); higher = more stable
Settings: c terminus: a fixed tail appended
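Note: lentivirally expressed fusions sorted by FACS into six bins by GFP to DsRed ratio, PSI derived from sequencing read proportions per bin multiplied by bin number.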

| Variant | protein stability index |
| --- | --- |
| LEAAEVILEHAHRGEQTTSQNSWE | 4.92 |
| LEAAEVILEHAHRGEQTTSQMSWE | 4.32 |
| LEAAEVILEHAHRGEQTTSQFSWE | 3.3 |
| LEAAEVILEHAHRGEQTTSQKSWE | 4.68 |
| LEAAEVILEHAHRGEQTTSQSSWE | 5.51 |
| LEAAEVILEHAHRGEQTTSQTSWE | 4.64 |
| LEAAEVILEHAHRGEQTTSQYSWE | 3.9 |
| LEAAEVILEHAHRGEQTTSQISWE | 3.5 |
| LEAAEVILEHAHRGEQTTSQRSWE | 4.18 |
| LEAAEVILEHAHRGEQTTSQLSWE | 4.58 |
| LEAAEVILEHAHRGEQTTSQPSWE | 5.55 |
| LEAAEVILEHAHRGEQTTSQASWE | 5.21 |
| LEAAEVILEHAHRGEQTTSQQSWE | 4.44 |
| LEAAEVILEHAHRGEQTTSQESWE | 5.07 |
| LEAAEVILEHAHRGEQTTSQGSWE | 4.94 |
| LEAAEVILEHAHRGEQTTSQCSWE | 4.62 |
| LEAAEVILEHAHRGEQTASQVSWE | 3.72 |
| LEAAEVILEHAHRGEQTHSQVSWE | 4.09 |
| LEAAEVILEHAHRGEQTESQVSWE | 4.2 |
| LEAAEVILEHAHRGEQTPSQVSWE | 4.33 |
| LEAAEVILEHAHRGEQTLSQVSWE | 4.11 |
| LEAAEVILEHAHRGEQTDSQVSWE | 4.74 |
| LEAAEVILEHAHRGEQTKSQVSWE | 4.54 |
| LEAAEVILEHAHRGEQTQSQVSWE | 3.21 |

| Variant | protein stability index |
| --- | --- |
| LEAAEVILEHAHRGEQTRSQVSWE | 3.93 |
| LEAAEVILEHAHRGEQTISQVSWE | 3.65 |
| LEAAEVILEHAHRGEQTMSQVSWE | 3.59 |
| LEAAEVILEHAHRGEQTNSQVSWE | 3.69 |
| LEAAEVILEHAHRGEQTWSQVSWE | 2.7 |
| LEAAEVILEHAHRGEQTGSQVSWE | 4.38 |
| LEAAEVILEHAHRGEQTVSQVSWE | 3.88 |
| LEAAEVILEHAHRGEQTSSQVSWE | 4.41 |
| LEAAEVILEHAHRGEQTCSQVSWE | 4.45 |
| LEAAEVILEHAHRGEQTFSQVSWE | 2.98 |
| LEAAEVILEHAHRGEQTYSQVSWE | 3.21 |
| LEAAEVILEHAHRGEQTTSQVFWE | 3.71 |
| LEAAEVILEHAHRGEQTTSQVCWE | 3.85 |
| LEAAEVILEHAHRGEQTTSQVDWE | 4.77 |
| LEAAEVILEHAHRGEQTTSQVKWE | 4.93 |
| LEAAEVILEHAHRGEQTTSQVIWE | 4.41 |
| LEAAEVILEHAHRGEQTTSQVEWE | 4.68 |
| LEAAEVILEHAHRGEQTTSQVGWE | 4.89 |
| LEAAEVILEHAHRGEQTTSQVAWE | 4.57 |
| LEAAEVILEHAHRGEQHTSQVSWE | 3.99 |
| LEAAEVILEHAHRGEQATSQVSWE | 4.2 |
| LEAAEVILEHAHRGEQYTSQVSWE | 3.32 |
| LEAAEVILEHAHRGEQMTSQVSWE | 3.85 |
| LEAAEVILEHAHRGEQETSQVSWE | 5.06 |

| Variant | protein stability index |
| --- | --- |
| LEAAEVILEHAHRGEQPTSQVSWE | 4.14 |
| LEAAEVILEHAHRGEQGTSQVSWE | 4.84 |
| LEAAEVILEHAHRGEQNTSQVSWE | 4.39 |
| LEAAEVILEHAHRGEQWTSQVSWE | 3.54 |
| LEAAEVILEHAHRGEQSTSQVSWE | 4.77 |
| LEAAEVILEHAHRGEQVTSQVSWE | 4.37 |
| LEAAEVILEHAHRGEQQTSQVSWE | 4.51 |
| LEAAEVILEHAHRGEQLTSQVSWE | 2.78 |
| LEAAEVILEHAHRGEQCTSQVSWE | 4.51 |
| LEAAEVILEHAHRGEYTTSQVSWE | 3.69 |
| LEAAEVILEHAHRGETTTSQVSWE | 4.33 |
| LEAAEVILEHAHRGEVTTSQVSWE | 4.13 |
| LEAAEVILEHAHRGESTTSQVSWE | 4.4 |
| LEAAEVILEHAHRGEQTTIQVSWE | 3.02 |
| LEAAEVILEHAHRGEQTTCQVSWE | 3.3 |
| LEAAEVILEHAHRGEQTTLQVSWE | 2.8 |
| LEAAEVILEHAHRGEQTTQQVSWE | 4.89 |
| LEAAEVILEHAHRGEQTTNQVSWE | 4.7 |
| LEAAEVILEHAHRGEQTTKQVSWE | 4.45 |
| LEAAEVILEHAHRGEQTTPQVSWE | 4.7 |
| LEAAEVILEHAHRGEQTTFQVSWE | 2.97 |
| LEAAEVILEHAHRGEQTTMQVSWE | 3 |
| LEAAEVILEHAHRGEQTTEQVSWE | 4.75 |
| LEAAEVILEHAHRGEQTTDQVSWE | 5.11 |

| Variant | protein stability index |
| --- | --- |
| LEAAEVILEHAHRGEQTTYQVSWE | 2.64 |
| LEAAEVILEHAHRGEQTTHQVSWE | 4.14 |
| LEAAEVILEHAHRGEQTTAQVSWE | 2.6 |
| LEAAEVILEHAHRGEQTTTQVSWE | 4.21 |
| LEAAEVILEHAHRGEQTTVQVSWE | 2.37 |
| LEAAEVILEHAHRGEQTTRQVSWE | 4.42 |
| LEAAEVILEHAHRGEQTTSDVSWE | 5.02 |
| LEAAEVILEHAHRGEQTTSFVSWE | 3.76 |
| LEAAEVILEHAHRGEQTTSIVSWE | 4.42 |
| LEAAEVILEHAHRGEQTTSVVSWE | 4.02 |
| LEAAEVILEHAHRGEQTTSTVSWE | 3.86 |
| LEAAEVILEHAHRGEQTTSCVSWE | 3.95 |
| LEAAEVILEHAHRGEQTTSNVSWE | 4.86 |
| LEAAEVILEHAHRGEQTTSYVSWE | 4.26 |
| LEAAEVILEHAHRGEQTTSAVSWE | 3.72 |
| LEAAEVILEHAHRGEQTTSRVSWE | 4.45 |
| LEAAEVILEHAHRGEQTTSMVSWE | 4.34 |
| LEAAEVILEHAHRGEQTTSLVSWE | 4.17 |
| LEAAEVILEHAHRGEQTTSKVSWE | 5.02 |
| LEAAEVILEHAHRGEQTTSPVSWE | 4.38 |
| LEAAEVILEHAHRGEQTTSSVSWE | 4.51 |
| LEAAEVILEHAHRGEQTTSHVSWE | 4.2 |

Reference: the supplement of paper PMC10567573
